These results are taken from article PMC3039359.

For one data set, the target named is T1, Rrp47 ΔC (Saccharomyces cerevisiae, UniProt P38801 1-120, del121-184).
T1 sequence: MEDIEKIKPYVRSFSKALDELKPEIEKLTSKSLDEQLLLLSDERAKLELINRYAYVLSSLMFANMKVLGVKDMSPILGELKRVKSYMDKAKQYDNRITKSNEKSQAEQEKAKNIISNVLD
Description: filter binding.

A further data set deals with T2, Rrp47 (Saccharomyces cerevisiae, UniProt P38801 1-184).
T2 sequence: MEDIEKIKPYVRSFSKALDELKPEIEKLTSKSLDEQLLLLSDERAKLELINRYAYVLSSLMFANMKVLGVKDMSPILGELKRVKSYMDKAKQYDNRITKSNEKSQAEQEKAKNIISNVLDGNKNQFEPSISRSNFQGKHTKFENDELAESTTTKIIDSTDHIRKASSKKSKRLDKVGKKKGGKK
The data set is described as follows: filter binding.

B1: SL-AU RNA (structured_RNA)
RNA: GGGUUUCCUUCUCAAACAUUCUGUUUGGUAGUGAGUAAUUAAAAAUGAAUU
For the molecule B1, in the data set with Rrp47 ΔC, the binding result was “no binding”. Also, in the data set with Rrp47, the Kd was about 1000 nM.
